Tested on: MS2 coat protein
Assay: apparent KD of MS2 coat protein; designed switch direction (-1 OFF switch, 1 ON switch): -1; higher = weaker reporter binding
Summary of the method: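 For each design, the apparent KD is the median over clusters of curves fitted to normalised cluster fluorescence. Clusters held RNA switches with common flanks, transcribed on Illumina chips by stalled E. coli RNA polymerase. These were titrated with SNAP-549-labelled MS2 coat protein, doubling from 0.7 or 1.5 nM to 3 µM, without input, with 200 uM small-molecule ligand, or with an oligonucleotide input.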

[1] = Eterna round: R95, input ligand: microRNA oligo, concentration not stated
[2] = Eterna round: R95, input ligand: FMN 200 uM
[3] = Eterna round: R95, input ligand: none
[4] = input ligand: microRNA oligo, concentration not stated

GCAGGAUAAGUGAGGAUAUACCUCUGGAUACAGAGGUAGAAGGCACAUGAGGAUCACCCAUGUCAUUCACCUGC [Fiskers BMX 4 - 77] (puzzle: Brourd's mod of Exclusion 4)
apparent KD of MS2 coat protein [1]: 14.4 nM

AGUACUAUCACGAAAGUGAUAGUACAAUAAACAAGUGAAACAUGAGGAUCACCCAUGUCCUCAUUUGCUCGUCUUAU [Sensor 3 - 1] (puzzle: Sensor v3, turn-off variant 2)
apparent KD of MS2 coat protein [2]: 146 nM
apparent KD of MS2 coat protein [1]: 389 nM
apparent KD of MS2 coat protein [3]: 183 nM

UAUAUAUAGUAAGGAUAUGUAAUUAUUUUAUUAACAGAAGGUACUGACAUGAGGAUCACCCAUGUUUUAGUGUGGGCAUGUAGA [JMF's solution 47] (Eterna round: R96, puzzle: Exclusion NG 1)
apparent KD of MS2 coat protein [4]: 72.6 nM

GUAAAACAUGUAGGAUAUGCGUGGCAAAGCUAUGCAGAAGGACAUGAGGAUCACCCAUGUUAAAGCGUCUGCGUACAGAUGCAA [Mat - Exclusion NG 1 - Mod of JL - D95] (Eterna round: R96, puzzle: Exclusion NG 1)
apparent KD of MS2 coat protein (input ligand: FMN 200 uM): 143 nM
apparent KD of MS2 coat protein [4]: 30.5 nM
apparent KD of MS2 coat protein (input ligand: none): 30.7 nM

GGUCCGAGUGUGAGGAUAUGCUGGUCCUUGGAUCAGCAGAAGGCACAUGAGGAUCACCCAUGUGGUGUCGGACC [Mat - Exclusion 4 - Eli Mod - D32] (Eterna round: R97, puzzle: Brourd's mod of Exclusion 4)
apparent KD of MS2 coat protein (input ligand: FMN 200 uM): 140 nM
apparent KD of MS2 coat protein (input ligand: none): 932 nM

UAUUACUCAGGAUAUAUGAUGUGAAACAUGAGGAUCACCCAUGUAAUAUUAUGGAUGUAAAUAGAAGGGAGAUAAU [Mat - Exclusion 5 - JL mod - D21] (puzzle: Exclusion 5)
apparent KD of MS2 coat protein [2]: 37.1 nM
apparent KD of MS2 coat protein [1]: 51.1 nM
apparent KD of MS2 coat protein [3]: 56.9 nM

UCCUCACAUGAGGAUCACCCAUGUCAGGAUAUACCCAUCCAGCGAAAUUAAAGCUGUAGUAGAAGGGACAUGCA [Raertele] (Eterna round: R97, puzzle: Exclusion 1)
apparent KD of MS2 coat protein (input ligand: FMN 200 uM): 40.4 nM
apparent KD of MS2 coat protein (input ligand: none): 20.1 nM

CGAAUUAUAGGAUAUACAUGAGGAUCACCCAUGUAACCGUGACUGGGAUGCGUCUCAAGUAGAAGGAUAGGCGC [Eternabot (L1) Solution 9] (Eterna round: R97, puzzle: Exclusion 3)
apparent KD of MS2 coat protein (input ligand: FMN 200 uM): 27.2 nM
apparent KD of MS2 coat protein (input ligand: none): 14.3 nM

AAGCCUCUUGUCAGGAUAUCUGUCGGUCCUCCAAGAGAGAAGGGACAUGAGGAUCACCCAUGUAAGCCCAGGGA [Qubere] (puzzle: Brourd's mod of Exclusion 4)
apparent KD of MS2 coat protein [1]: 13.5 nM

AGUACUAACUCGAAAGUGUUAGUACAAUAAGCUUGUGAAACAUGAGGAUCACCCAUGUCCUCAUAAGCUCGUCUUAU [salish99_TOv2_r3_022] (Eterna round: R96, puzzle: Sensor v3, turn-off variant 2)
apparent KD of MS2 coat protein (input ligand: FMN 200 uM): 16 nM
apparent KD of MS2 coat protein [4]: 430 nM
apparent KD of MS2 coat protein (input ligand: none): 18 nM

GCACGGAAAUUCCAUAAAACCACAUGAGGAUCACCCAUGUCUCAGGAUAUGGUCUGGAUUACAGGCCAGAAGGGAGAACCGUGC [Eli exng3 - 059] (Eterna round: R96, puzzle: Exclusion NG 3)
apparent KD of MS2 coat protein (input ligand: FMN 200 uM): 15.1 nM
apparent KD of MS2 coat protein [4]: 10.2 nM
apparent KD of MS2 coat protein (input ligand: none): 11.8 nM

UAAGAGUGAGGAUAUACGUCGCUGGUCCAGAUGGACGCAUGACAUGAGGAUCACCCAUGUAGAAGGCACAAAAC [Enxela Mod 3 - Jieux - Exclusion 2] (Eterna round: R97, puzzle: Exclusion 2)
apparent KD of MS2 coat protein (input ligand: FMN 200 uM): 189 nM
apparent KD of MS2 coat protein (input ligand: none): 32.8 nM

UAAUUGAUUAAUAGAUUAUACAUGAGGAUCACCCAUGUAGGUCCUACGUGCCAUUUAAGUAGCUCGUCUUAUUAUUA [Sensor-V1 #66] (Eterna round: R97, puzzle: Sensor, turn-off variant 1)
apparent KD of MS2 coat protein (input ligand: FMN 200 uM): 40.2 nM
apparent KD of MS2 coat protein (input ligand: none): 46.5 nM

CCAUAGUGAGGAUAUGUAAACGUGUUGGCGAAAUCAGCACGGCAGAAGGCACAUGAGGAUCACCCAUGUCCUGA [Eternabot (L2) Solution 45] (Eterna round: R97, puzzle: Exclusion 4)
apparent KD of MS2 coat protein (input ligand: FMN 200 uM): 25.9 nM
apparent KD of MS2 coat protein (input ligand: none): 20.8 nM

— the supplement of paper PMC9170038
